Laboratory results from the supplement of paper PMC10567573.

B1: RHOBTB2 (parent)
chain: NQEITKAFHVRRTNRVKECLAKGT
B2: RHOBTB3 (parent)
chain: VSHVFMLLFNVKSPTDIQDSSIIR

Variants of: B1
Test: protein stability index of a GFP-peptide fusion (GPS, HEK-293T) (PSI 1-6); higher = more stable
Conditions: c terminus: a fixed tail appended
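Also: lentivirally expressed fusions sorted by FACS into six bins by GFP to DsRed ratio, PSI derived from sequencing read proportions per bin multiplied by bin number.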

Protein stability index, by site and new letter:
K22: S 3.86 | R 3.67 | T 3.74 | V 2.3 | Q 3.28 | M 2.73 | F 1.88 | I 2.58 | W 2.06 | H 3.03 | L 2.61 | E 3.87 | N 3.18 | P 3.04
T24: I 2.16 | W 2.69 | K 3.88 | F 1.81 | V 2.7 | S 3.61 | G 2.92 | A 3.55 | L 3.53 | P 3.65 | R 2.7 | C 2.19 | N 3.36 | D 3.46 | H 3.32 | M 2.86
G23: H 2.84 | W 2.61 | R 2.82 | C 2.67 | T 2.66 | S 3.11 | N 3.02 | F 2.07 | K 4.17 | P 3.25 | Y 2.26 | E 3.64 | I 2.61 | A 2.73 | L 2.56 | D 2.73 | V 1.75 | Q 2.99

Variants of: B2
Test: as above
Conditions: c terminus: a fixed tail appended

Protein stability index, by site and new letter:
H3: V 3.75 | D 2.38 | P 1.52 | M 1.78 | E 1.42 | G 3.65 | R 2.1 | L 2.69 | W 3.07 | S 2.28 | Q 2.51
Q18: E 2.79 | W 3.42 | A 3.32 | T 2.57 | K 2.82 | S 3.12 | C 2.77 | Y 3.89 | P 3.69 | H 2.48 | V 3.53 | D 4.62 | N 1.19 | F 2.75
M6: K 1.42 | Y 3.18 | E 2.43 | T 2.99 | N 2.98 | I 2.83 | D 2.26 | H 2.87 | S 2.2 | R 1.77 | L 3.66 | Q 2.24 | F 3.03 | A 3 | V 3.62 | C 1.98 | G 2.29 | P 1.59
S20: D 2.91 | Y 2.66 | M 3.1 | H 2.49 | W 3.16 | P 3.04 | Q 3.34 | A 2.66 | R 1.66 | T 2.05 | F 2.79 | I 2.98 | K 1.33
V1: E 2.08 | Q 2.22 | L 1.33 | I 3.46 | K 1.05 | N 1.89 | P 3.42 | W 3.32 | S 2.88 | F 2.54 | A 2.98 | D 2.05 | M 3.38
V4: P 2.12 | T 2.54 | M 2.52 | D 2.16 | W 2.46 | F 4.42 | S 1.89 | E 1.3 | Q 3.13 | C 4.79 | K 1.97 | G 2.28 | Y 1.61 | N 1.19 | R 3.04
F5: G 1.19 | K 1.84 | D 2.29 | N 1.97 | C 2.99 | A 1.5 | Y 3.79 | V 3.38 | S 1.95 | E 2.3 | I 2.31 | H 2.29 | P 2.04 | M 1.44 | L 4.65 | Q 1.95 | T 1.71 | R 1.41
K12: Y 1.81 | T 1.98 | N 1.99 | G 3.36 | V 4.26 | D 2.5 | W 4.11 | L 1.46 | H 2.15 | I 3.28 | A 5.33 | Q 2.78 | R 3.32 | C 1.55 | M 3.63 | E 1.8
I17: K 1.51 | S 1.18 | P 2.88 | R 3.58 | E 1.9 | W 3.63 | N 2.1 | T 2.71 | Y 1.66 | V 2.81 | L 2.92 | C 3.7 | H 2.01 | Q 1.58
L7: N 2.25 | W 2.9 | Y 2.77 | S 1.72 | I 2.99 | C 2.94 | M 2.37 | H 3.82 | T 2.73 | E 2.13 | D 1.93 | A 1.74 | K 1.59 | Q 2.23 | V 2.34 | F 3.17 | R 2.4 | P 2.18 | G 2.25
D16: E 2.96 | A 2.52 | Y 3.61 | H 3.02 | N 3.77 | M 3.75 | S 2.63 | R 3.86 | T 2.99 | L 2.16 | F 1.93 | C 2.82
D19: R 3.06 | T 3.05 | A 3.48 | M 4.57 | I 3.28 | L 1.89 | E 3.13 | F 2.28 | Q 2.96 | H 3.04 | K 2.3 | P 2.41 | S 2.93 | N 2.96
S21: I 2.74 | H 2.35 | C 3.76 | G 3.46 | F 3.07
V11: G 3.8 | R 3.03 | C 3.03 | P 2.94 | F 2.74 | D 1.23 | L 4.23 | W 2.83 | H 3.04 | S 3.03 | N 3.13 | I 3.24 | M 3.81 | Q 1.82 | E 2.08
F9: Q 1.5 | C 2.44 | Y 4.01 | G 1.69 | S 2.61 | A 1.92 | T 1.57 | H 1.63 | I 2.62 | P 1.55 | L 3.21 | N 1.93 | W 3.94 | R 2.74 | K 2.21 | D 1.45 | E 2.21
S2: A 2.55 | Y 2.75 | M 3.95 | L 3.13 | V 3.75 | W 2.82 | D 2.44 | G 2.58 | N 2.84 | K 3.57 | F 3.6
S13: H 2.37 | L 3.37 | I 4.29 | T 3.82 | F 3.32 | D 2.36 | E 2.99 | C 4.63 | M 3.52 | Y 2.31 | K 2.17
P14: C 5.86 | L 2.04 | G 4.07 | D 2.34 | E 2.14 | Y 3.96 | I 3.62 | V 3.52 | S 3.49 | F 3.75 | M 1.72 | W 3.15 | K 2.58 | H 2.54 | A 3.26
L8: S 2.78 | G 2.55 | K 2.71 | H 2.23 | M 2.95 | Q 2.75 | E 1.36 | N 2.46 | D 1.81 | C 2.23 | P 2.34 | F 2.22
T15: V 3.4 | F 3.38 | I 2.23 | W 1.62 | S 5.07 | C 3.31 | L 2.3 | G 2.76 | Y 2.63 | N 3.26 | K 5.21 | R 4.51
N10: D 3.9 | L 3.27 | C 1.43 | T 2.15 | A 2.47 | V 2.13 | P 2.3 | W 3.77 | H 3.06 | G 2.24 | I 2.19
